Laboratory results reported in the supplement of paper PMC10567573.

B1: TCEB3B (parent)
chain: STTALGDKQRKANESKGTRESWDS
B2: PTPRD (parent)
chain: ITWFKDFLPVDTSNNNGRIKQLRS

Variants of: B1
Assay: protein stability index of a GFP-peptide fusion (GPS, HEK-293T) (PSI 1-6); higher = more stable
Conditions: c terminus: a fixed tail appended
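Also: lentivirally expressed fusions sorted by FACS into six bins by GFP to DsRed ratio, PSI derived from sequencing read proportions per bin multiplied by bin number.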

Compared with STTKLGDKQRKANESKGTRESWDS [A4K], STYALGDKQRKANESKGTRESWDS [T3Y] is lower in protein stability index: 3.78 for the first, 3.77 for the second.

First: STMALGDKQRKANESKGTRESWDS [T3M]
Second: STFALGDKQRKANESKGTRESWDS [T3F]
The protein stability index of the first is higher: 4.1 for the first, 3.32 for the second.

Compared with STSALGDKQRKANESKGTRESWDS [T3S], STRALGDKQRKANESKGTRESWDS [T3R] is higher in protein stability index: 3.57 for the first, 3.89 for the second.

Going from STQALGDKQRKANESKGTRESWDS [T3Q] to STVALGDKQRKANESKGTRESWDS [T3V], the protein stability index rises from 4.35 to 4.36.

First: STKALGDKQRKANESKGTRESWDS [T3K]
Second: STAALGDKQRKANESKGTRESWDS [T3A]
The protein stability index of the first is lower: 3.56 for the first, 3.89 for the second.

Going from STDALGDKQRKANESKGTRESWDS [T3D] to STLALGDKQRKANESKGTRESWDS [T3L], the protein stability index falls from 3.98 to 3.83.

Compared with STNALGDKQRKANESKGTRESWDS [T3N], STPALGDKQRKANESKGTRESWDS [T3P] is higher in protein stability index: 3.77 for the first, 4.02 for the second.

First: STGALGDKQRKANESKGTRESWDS [T3G]
Second: STIALGDKQRKANESKGTRESWDS [T3I]
The protein stability index of the first is higher: 4.22 for the first, 3.72 for the second.

Compared with STEALGDKQRKANESKGTRESWDS [T3E], STHALGDKQRKANESKGTRESWDS [T3H] is lower in protein stability index: 4.33 for the first, 4.21 for the second.

Compared with STCALGDKQRKANESKGTRESWDS [T3C], STWALGDKQRKANESKGTRESWDS [T3W] is higher in protein stability index: 3.22 for the first, 3.57 for the second.

Variants of: B2
Assay: as above
Conditions: c terminus: a fixed tail appended

Compared with ITWFKDFLPVDTSNNNGRIKQARS [L22A], ITWFKDFLPVDTSNNNGRIKQQRS [L22Q] is lower in protein stability index: 1.69 for the first, 1.62 for the second.

First: ITWFKDFLPVDTSNNNGRIKQRRS [L22R]
Second: ITWFKDFLPVDTSNNNGRIKQHRS [L22H]
The protein stability index of the first is lower: 1.83 for the first, 2.28 for the second.

First: ITWFKDFLPVDTSNNNGRIKQCRS [L22C]
Second: ITWFKDFLPVDTSNNNGRIKQSRS [L22S]
The protein stability index of the first is lower: 1.61 for the first, 2.04 for the second.

Compared with ITWFKDFLPVDTSNNNGRIKQTRS [L22T], ITWFKDFLPVDTSNNNGRIKQMRS [L22M] is lower in protein stability index: 2.12 for the first, 1.88 for the second.

Compared with ITWFKDFLPVDTSNNNGRIKQPRS [L22P], ITWFKDFLPVDTSNNNGRIKQGRS [L22G] is higher in protein stability index: 1.63 for the first, 1.84 for the second.

First: ITWFKDFLPVDTSNNNGRIKQVRS [L22V]
Second: ITWFKDFLPVDTSNNNGRIKQIRS [L22I]
The protein stability index of the first is lower: 1.62 for the first, 2.24 for the second.

First: ITWFKDFLPVDTSNNNGRIKQYRS [L22Y]
Second: ITWFKDFLPVDTSNNNGRIKQNRS [L22N]
The protein stability index of the first is higher: 2.73 for the first, 2.01 for the second.

Going from ITWFKDFLPVDTSNNNGRIKQKRS [L22K] to ITWFKDFLPVDTSNNNGRIKQERS [L22E], the protein stability index rises from 1.77 to 2.07.

Compared with ITWFKDFLPVDTSNNNGRIKQDRS [L22D], ITWFKDFLPVDTSNNNGRIKQWRS [L22W] is lower in protein stability index: 2 for the first, 1.84 for the second.

Going from ITWFKDFLPVDTSNNNGRIKQFRS [L22F] to ITWFKDFLPVDTSNNNGRIKQLRF [S24F], the protein stability index falls from 2.01 to 1.69.

Going from ITWFKDFLPVDTSNNNGRIKQLRH [S24H] to ITWFKDFLPVDTSNNNGRIKQLRN [S24N], the protein stability index rises from 1.74 to 1.88.

First: ITWFKDFLPVDTSNNNGRIKQLRC [S24C]
Second: ITWFKDFLPVDTSNNNGRIKQLRE [S24E]
The protein stability index of the first is higher: 2.32 for the first, 1.77 for the second.

First: ITWFKDFLPVDTSNNNGRIKQLRM [S24M]
Second: ITWFKDFLPVDTSNNNGRIKQLRR [S24R]
The protein stability index of the first is lower: 1.54 for the first, 2.18 for the second.

Going from ITWFKDFLPVDTSNNNGRIKQLRG [S24G] to ITWFKDFLPVDTSNNNGRIKQLRV [S24V], the protein stability index falls from 2.34 to 1.52.

First: ITWFKDFLPVDTSNNNGRIKQLRW [S24W]
Second: ITWFKDFLPVDTSNNNGRIKQLRL [S24L]
The protein stability index of the first is higher: 2.63 for the first, 1.41 for the second.

Compared with ITWFKDFLPVDTSNNNGRIKQLRP [S24P], ITWFKDFLPVDTSNNNGRIKQLRY [S24Y] is higher in protein stability index: 1.34 for the first, 1.94 for the second.

Compared with ITWFKDFLPVDTSNNNGRIKQLRK [S24K], ITWFKDFLPVDTSNNNGRIKQLRT [S24T] is lower in protein stability index: 2.15 for the first, 1.51 for the second.

First: ITWFKDFLPVDTSNNNGRIKQLRA [S24A]
Second: ITWFKDFLPVDTSNNNGRIKQLRD [S24D]
The protein stability index of the first is higher: 1.96 for the first, 1.9 for the second.

Compared with ITWFKDFLPVDTSNNNGRIKQLRI [S24I], ITWFKDFLPVDTSNNNGRIKQLRQ [S24Q] is lower in protein stability index: 1.97 for the first, 1.78 for the second.

Compared with ITWFKDFLPVDTSNNNGRIKTLRS [Q21T], ITWFKDFLPVDTSNNNGRIKKLRS [Q21K] is higher in protein stability index: 1.69 for the first, 2.58 for the second.

Compared with ITWFKDFLPVDTSNNNGRIKLLRS [Q21L], ITWFKDFLPVDTSNNNGRIKGLRS [Q21G] is higher in protein stability index: 1.73 for the first, 2.28 for the second.

First: ITWFKDFLPVDTSNNNGRIKVLRS [Q21V]
Second: ITWFKDFLPVDTSNNNGRIKNLRS [Q21N]
The protein stability index of the first is lower: 1.67 for the first, 1.99 for the second.

Going from ITWFKDFLPVDTSNNNGRIKHLRS [Q21H] to ITWFKDFLPVDTSNNNGRIKDLRS [Q21D], the protein stability index rises from 1.56 to 2.17.

First: ITWFKDFLPVDTSNNNGRIKFLRS [Q21F]
Second: ITWFKDFLPVDTSNNNGRIKMLRS [Q21M]
The protein stability index of the first is higher: 1.75 for the first, 1.45 for the second.

Going from ITWFKDFLPVDTSNNNGRIKWLRS [Q21W] to ITWFKDFLPVDTSNNNGRIKRLRS [Q21R], the protein stability index falls from 2.24 to 1.55.

Compared with ITWFKDFLPVDTSNNNGRIKPLRS [Q21P], ITWFKDFLPVDTSNNNGRIKSLRS [Q21S] is higher in protein stability index: 2.01 for the first, 2.38 for the second.

Going from ITWFKDFLPVDTSNNNGRIKELRS [Q21E] to ITWFKDFLPVDTSNNNGRIKYLRS [Q21Y], the protein stability index falls from 2.2 to 1.93.

First: ITWFKDFLPVDTSNNNGRIKILRS [Q21I]
Second: ITWFKDFLPVDTSNNNGRIKQLSS [R23S]
The protein stability index of the first is higher: 2.23 for the first, 1.83 for the second.

Going from ITWFKDFLPVDTSNNNGRIKQLIS [R23I] to ITWFKDFLPVDTSNNNGRIKQLDS [R23D], the protein stability index rises from 1.88 to 2.39.

First: ITWFKDFLPVDTSNNNGRIKQLGS [R23G]
Second: ITWFKDFLPVDTSNNNGRIKQLLS [R23L]
The protein stability index of the first is lower: 1.74 for the first, 1.81 for the second.

First: ITWFKDFLPVDTSNNNGRIKQLES [R23E]
Second: ITWFKDFLPVDTSNNNGRIKQLCS [R23C]
The protein stability index of the first is higher: 2.77 for the first, 1.43 for the second.

Compared with ITWFKDFLPVDTSNNNGRIKQLMS [R23M], ITWFKDFLPVDTSNNNGRIKQLNS [R23N] is lower in protein stability index: 1.88 for the first, 1.83 for the second.

Compared with ITWFKDFLPVDTSNNNGRIKQLHS [R23H], ITWFKDFLPVDTSNNNGRIKQLFS [R23F] is higher in protein stability index: 1.74 for the first, 1.88 for the second.

Going from ITWFKDFLPVDTSNNNGRIKQLKS [R23K] to ITWFKDFLPVDTSNNNGRIKQLYS [R23Y], the protein stability index falls from 2.55 to 1.63.

Going from ITWFKDFLPVDTSNNNGRIKQLWS [R23W] to ITWFKDFLPVDTSNNNGRIKQLPS [R23P], the protein stability index rises from 1.11 to 1.8.

Compared with ITWFKDFLPVDTSNNNGRIKQLVS [R23V], ITWFKDFLPVDTSNNNGRIKQLQS [R23Q] is higher in protein stability index: 1.91 for the first, 2.09 for the second.

Going from ITWFKDFLPVDTSNNNGRIKQLAS [R23A] to ITWFKDFLPVDTSNNNGRIKQLTS [R23T], the protein stability index falls from 2.89 to 2.04.
